Source: US20210261685A1 (Alector, published 2021)
Residue numbers refer to the chain shown, from its start.

Columns and labels:
[1] = biological target: T1, human MerTK endogenously expressed on cells (SK-MEL-5 cells; human macrophages) (human, UniProt Q12866 21-999); test: cell-based or functional assay
T1 sequence: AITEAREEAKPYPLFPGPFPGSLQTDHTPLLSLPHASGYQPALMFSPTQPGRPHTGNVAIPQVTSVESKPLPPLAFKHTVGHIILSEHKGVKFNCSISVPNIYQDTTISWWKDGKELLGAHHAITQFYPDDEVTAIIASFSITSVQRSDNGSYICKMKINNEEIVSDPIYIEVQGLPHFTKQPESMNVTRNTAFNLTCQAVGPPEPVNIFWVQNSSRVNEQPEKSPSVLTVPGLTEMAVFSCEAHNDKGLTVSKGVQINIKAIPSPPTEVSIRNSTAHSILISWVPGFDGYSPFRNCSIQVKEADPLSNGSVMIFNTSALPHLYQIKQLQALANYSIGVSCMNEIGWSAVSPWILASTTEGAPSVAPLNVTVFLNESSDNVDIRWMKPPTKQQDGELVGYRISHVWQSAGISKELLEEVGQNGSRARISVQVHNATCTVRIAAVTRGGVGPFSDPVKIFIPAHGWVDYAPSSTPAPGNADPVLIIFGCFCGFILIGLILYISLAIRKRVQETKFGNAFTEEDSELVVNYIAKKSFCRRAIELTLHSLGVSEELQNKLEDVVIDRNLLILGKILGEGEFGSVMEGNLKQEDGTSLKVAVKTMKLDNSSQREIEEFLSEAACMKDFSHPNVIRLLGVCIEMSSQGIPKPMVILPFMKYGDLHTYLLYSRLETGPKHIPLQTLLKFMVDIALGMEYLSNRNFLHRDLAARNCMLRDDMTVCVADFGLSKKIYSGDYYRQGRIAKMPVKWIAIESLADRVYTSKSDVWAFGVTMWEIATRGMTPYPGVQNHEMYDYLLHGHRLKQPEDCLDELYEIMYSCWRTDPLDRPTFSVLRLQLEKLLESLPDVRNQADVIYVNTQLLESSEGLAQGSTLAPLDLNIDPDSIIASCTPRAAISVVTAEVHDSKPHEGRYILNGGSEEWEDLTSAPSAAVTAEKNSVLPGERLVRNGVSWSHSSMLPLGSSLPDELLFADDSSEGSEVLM

[2] = biological target: T1, human MerTK endogenously expressed on …; test: flow cytometry on SK-MEL-5 cells, Prism fit
Procedure: To determine whether recombinant anti-human MerTK antibodies of the present disclosure bind to human MerTK endogenously expressed on SK-MEL-5 cells and to CHO cells overexpressing mouse MerTK (CHO-muMerTK OE cells), the following experiments were performed. SK-MEL-5 cells and CHO-muMerTK OE cells were plated at 40,000 cells/well. Anti-MerTK antibodies were titrated to a final concentration range of between 66.6 nM to 4 pM and then added to the cells. After 30 min on ice, cells were washed and then stained with APC-conjugated mouse anti-human Kappa antibody (Southern Biotech Cat #9230-11, Birmingham, Ala.) and a viability die (Life Technologies) in the presence of Fc block solution on ice for 30 minutes, and then washed twice with cold FACS buffer (2% FBS in PBS). Cells were fixed with 4% paraformaldehyde in PBS. Stained cells were acquired on a BD FACS Canto II cytometer and the mean fluorescence intensity (MFI) was calculated with FlowJo software and K value was calculated with Prism software. […] A lower Kd value reflects higher binding of antibody to cells.

[3] = biological target: T2, Recombinant human MerTK human Fc Chimera protein (R&D systems, Cat #391-MR-100) (human, UniProt Q12866 26-499, limits assumed); test: competition ELISA, His-ProS on captured MerTK-Fc
T2 construct: Bought; also called recombinant human MerTK protein; MerTK-Fc
T2 sequence: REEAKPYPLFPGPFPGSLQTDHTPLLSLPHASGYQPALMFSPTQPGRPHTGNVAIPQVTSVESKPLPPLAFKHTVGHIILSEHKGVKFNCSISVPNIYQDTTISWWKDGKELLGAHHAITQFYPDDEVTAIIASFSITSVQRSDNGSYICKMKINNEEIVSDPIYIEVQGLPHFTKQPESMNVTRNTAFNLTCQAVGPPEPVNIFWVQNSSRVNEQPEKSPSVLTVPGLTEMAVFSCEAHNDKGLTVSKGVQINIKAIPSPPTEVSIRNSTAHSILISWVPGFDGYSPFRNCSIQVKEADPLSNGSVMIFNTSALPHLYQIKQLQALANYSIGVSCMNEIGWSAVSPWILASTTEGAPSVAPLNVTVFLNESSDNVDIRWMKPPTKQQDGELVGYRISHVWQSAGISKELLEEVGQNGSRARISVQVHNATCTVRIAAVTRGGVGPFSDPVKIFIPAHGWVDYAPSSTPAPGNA
Outline: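 Blocking IC50 (nM) comes from OD450 curves after TMB development of bound His-tagged ligand detected by HRP-anti-His. Ligand (His-Gas6 at 3 μg/ml, or His-ProS at 20 μg/ml) and titrated antibody (66.6 nM to 4 pM final) were incubated 1 h on MerTK-Fc (2 μg/ml) held by an anti-human IgG capture antibody.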

[4] = biological target: T2, Recombinant human MerTK human Fc …; test: competition ELISA, His-Gas6 on captured MerTK-Fc
Procedure: Rabbit anti-human IgG polyclonal antibody (Jackson ImmunoResearch, Cat #309-005-008) was captured to a high-protein binding plate at 2 μg/ml 4° C. overnight. After washing with 0.05% Tween20 in PBS three times, 5% BSA in PBS was added for 1 hour. Recombinant human MerTK human Fc Chimera protein (R&D systems, Cat #391-MR-100) was added at 2 μg/ml for 1 hour and the plates were then washed. Anti-MerTK antibodies were titrated to final concentration range of between 66.6 nM to 4 pM and then 40 μl of serially diluted antibody and 40 μl of His tag-conjugated recombinant Gas6 protein (R&D systems, Cat #885-GSB-050) at 3 μg/ml or His tag-conjugated recombinant ProS protein (R&D systems, Cat #9489-PS-100) at 20 μg/ml. After a further incubation for 1 hour, plates were washed and incubated for 1 hour with HRP-conjugated anti-6×His tag antibody (Abcam, Cat #ab1187). Plates were then washed and an HRP substrate (TMB) was used to develop the plates. After sufficient color change was observed, the reaction was stopped by adding 50 μl 2N H₂SO₄ and the OD was measured using a spectrophotometer (BioTek).
From these experiments, IC50 values [nM] were determined using OD450 values obtained from the dose-response curves analyzed with Prism software. Table 14 and Table 15 show IC50 values determined for anti-MerTK antibody blocking of Gas6 ligand binding and ProS ligand binding to MerTK. […] Dashes indicate lack of significant blocking; “n.a.” indicates data not available.

B1: MTK-01 (antibody, human IgG1, V domains shown)
VH: QIQLVQSGPELKKPGETVKISCKASGYTFTNYGMNWVKQAPGKGLKCMGWINTYTGEPTYADDFKGRFAFSLETSATTAYLQINNLKNEDTATYFCARRDRYTWFAYWGQGTLVTVSA
VL: QIVLSQSPAILSASPGEKVTMTCRASSSVSYMHWYQQKPGSSPKPWIYATSNLASGVPARFSGSGSGTSYSLTISRVEAEDAATYYCQQWSSNPPTFGGGTKLEIK
In the case of B1, the “Gas6-mediated pAKT activity, average IC50, human M2c macrophages” value (“Gas6-mediated pAKT activity” below) [1] is reported as 1.28 nM, the Kd [2] is reported as 0.049 nM and the IC50 [3] is reported as 2.85 nM.

B2: MTK-19 (antibody, human IgG1, V domains shown)
VH: EVQLQQSGPELVKPGASVKISCKTSGYTFTEYTMHWVKQSHGKSLEWLGGFNPNNVITSYNQRFQGRATLTVDKSSSTAYMELRSLTSDDSAVYYCTRGDLLWSLLLPGNYFDYWGQGTTLTVSS
VL: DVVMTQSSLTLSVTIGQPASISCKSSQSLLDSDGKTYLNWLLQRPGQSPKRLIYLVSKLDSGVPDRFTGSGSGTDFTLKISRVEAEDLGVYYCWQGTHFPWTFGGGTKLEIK
With B2 the “Gas6-mediated pAKT activity” value [1] was 0.902 nM, the Kd [2] was 3.07 nM and the IC50 [3] was 11.3 nM.

B3: MTK-29 (antibody, human IgG1, V domains shown)
VH: QIQLVQSGPELKKPGETVKISCKSSGFTFTTYGMSWVKQAPGKGLKWMGWINTYSGVPTYTDDFKGRFAFSLETSASTASLQINNLKNEDTATYFCARYTNYGYFDYWGQGTTLTVSS
VL: B1 VL with S26T, S30G, D81H, S91G, P95F, G99S
In the case of B3, the “Gas6-mediated pAKT activity” value [1] is reported as 5.37 nM, the Kd [2] is reported as 0.14 nM and the IC50 [3] is reported as 2.66 nM.

B4: MTK-33 (antibody, human IgG1, V domains shown)
VH: QVQLQQPGPELVRPGTSVKLSCKASGYTFTSYWMHWIKQRPGQGLEWIGVIDPSDNYINYNQKFKGKATLTVDTSSSTAYLQLSSLTSEDSAVYYCAREAGTRGYFDYWGQGTTLTVSS
VL: SIVMTQTPKFLLVSAGDRVIITCKASQSVSNTVAWYQQKPGQSPKLLIYYASNRYTGVPDRFTGSGYGTDFTFTISTVQAEDLAVYFCQQDYRSPFTFGSGTQLEMK
With B4 the “Gas6-mediated pAKT activity” value [1] was 4.28 nM, the Kd [2] was 0.93 nM and the IC50 [3] was 0.601 nM.

B5: MTK-05 (antibody, human IgG1, V domains shown)
VH: QVQLQQSGAELVQPGTSVRLSCKTSGYTFTSYWIQWVKQRPGQGLGWIGEIFPGTGTTYYNEKFKGKATLTIDTSSSTAYMQLSSLTSEDSAVYFCARDGAYFDVWGAGTTVTVSS
VL: DIQMTQSPASLSASVGETVTFTCRASENIFSYLAWYQQKQGKSPQLLVYNAKTLAEGVPSRFSGSGSGTHFSLKINSLQPEDFGSYYCLHHYGTPLTFGAGTKLELK
With B5 the “Gas6-mediated pAKT activity” value [1] was 0.246 nM and the IC50 [3] was 6.51 nM.

B6: MTK-26 (antibody, human IgG1, V domains shown)
VH: AVQFQESGPGLVKLSQSLSLTCSVTGYSITSGYYWDWIRQFPGNKLEWMGYISYDGSNNYNPSLKNRISITRDTSKNQFFLKLNSVTTEDTATYYCAREGGYYRSMDYWGQGTSVTVSS
VL: QIVLTQSPAIMSASPGEKVTIACSASSSVSFMHWFQQKPGTSPRLWIYSTSNLASGVPARFSGSGSGTSYSLTISRMEAEDAATYYCQQRSSYPFTFGSGTKLEIK
For B6, the Kd [2] was 1.38 nM, the IC50 [4] was 2.93 nM and the IC50 [3] was 1.2 nM.

B7: MTK-27 (antibody, human IgG1, V domains shown)
VH: EVQLQQSGTELVRPGASVKLSCTASGFNIKDDYMHWVQQRPEQGLEWIGWIDPENGNTEYASKFQGKATITADASSNTAYLQLSSLTSEDTAVYYCSTLFSNYFDYWGQGTTLTVSS
VL: DIVMTQSQKFMSTSVGDRVSITCKASQNVRTSVAWYQQKPGQSPKALIYLASNRHTGVPDRFTGSGSGTDFTLTISNVRSEDLADYFCLQHWNYPYTFGGGTKLEIK
With B7 the Kd [2] was 2.55 nM, the IC50 [4] was 1.42 nM and the IC50 [3] was 2.54 nM.

B8: MTK-30 (antibody, human IgG1, V domains shown)
VH: QVQLQQPGTELVRPGASVKLSCKASGYTFTSYWMHWVKQRPGQGLEWIGNLNPNNGGTYYNEKFKSKATLTVDKSSSTAYMQLSSLTSEDSAVYYCARQILLYFDYWGQGTTLTVSS
VL: DVLMTQTPLSLPVSLGDQASISCRSSQSIVHSNGDTYLEWYLQKPGQSPKLLIYKVSNRFSGVPDRFSGSGSGTDFTLKISRVEAEDLGVYYCFQGSHVPWTFGGGTKLEIK
Work on B8 yielded a Kd [2] of 0.47 nM, an IC50 [4] of 1.26 nM and an IC50 [3] of 1.57 nM.

B9: MTK-35 (antibody, human IgG1, V domains shown)
VH: QVLLQQSGPELVKPGASVQLSCKASDYTFTSYDIHWVKQRPGQGLEWIGWIYPRDGYTKYNEIFKGKATLTVDTSSTTAYMELHSLTSEDSAVYFCARAYYTNWYYFDYWGQGTTLTVSS
VL: EIVLTQSPTTMAASPGEKITITCRASSSISSHYLHWYQQKPGFSPKLLIYRTSNLASGVPARFSGSGSGTSYSLTIGTMEAEDVATYYCQQGSTIPLTFGAGTKLVLK
Work on B9 yielded a Kd [2] of 1.29 nM, an IC50 [4] of 0.31 nM and an IC50 [3] of 0.924 nM.

B10: MTK-36 (antibody, human IgG1, V domains shown)
VH: QVTLKESGPGILQPSQTLSLTCSFSGFSLSTFGMGVGWIRQPSGKGLEWLAHIWWYDDKYYEPALKSRLTISKDSSKNQVFLKIANVDTADTATYYCARIYYGTSYRYFDVWGTGTTVTVSS
VL: B1 VL with S14F, S26T, S30R, S51Y, A54T, Q88H, P95Y
Binder B10 has a Kd [2] of 1.42 nM, an IC50 [4] of 0.29 nM and an IC50 [3] of 1.4 nM.
